Measured values as given in US9540428B2, “Extracellular matrix heparin-binding domains” (EPFL-TTO, priority 2012, dated 2017).

Key:
FGF-4 = molecular target: T1, FGF-4 (Homo sapiens, UniProt P08620); assay: ELISA binding to coated FGF-4; conditions: 50 nM cytokine coated
T1 sequence (P08620 31-206): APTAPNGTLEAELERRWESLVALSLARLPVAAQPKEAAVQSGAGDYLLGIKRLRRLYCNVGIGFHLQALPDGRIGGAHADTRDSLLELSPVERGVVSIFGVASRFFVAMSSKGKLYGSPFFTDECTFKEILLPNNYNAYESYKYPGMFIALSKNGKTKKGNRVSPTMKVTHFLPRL
Experimental: (§1) ELISA plates were coated with cytokines or BSA and further incubated with TNC III1-5 to analyze binding of TNC III1-5 to a wide variety of cytokines. […] Results are depicted in FIG. 3. Method: 50 nM of cytokine was coated for (1 hr, 37° C.). After blocking with 2% BSA (1 hr, RT). 100 nM TNC III1-5 was applied in PBST (0.05% tween, 0.1% bovine serum albumin (BSA)) (1 hr, RT). TNC III1-5 was detected with horseradish peroxidase (HRP)-anti-HIS in PBST (1 hr, RT) and developed with 3,3′,5,5′-tetramethylbenzidine (TMB), a soluble colorimetric HRP […]. Addition of sulfuric acid stop solution changes the color to yellow, enabling accurate measurement of the intensity at 450 nm using a spectrophotometer or plate reader. […] Heparin (4 μM) was added to TNC III1-5 to test the effect of blocking the heparin binding site of TNC III1-5, which has been defined as domain TNC III5 (Weber, Zimmermann, et al., 1995).

FGF-6 = molecular target: T2, FGF-6 (Homo sapiens, UniProt P10767); assay: ELISA binding to coated FGF-6; conditions: 50 nM cytokine coated
T2 sequence (P10767 38-208): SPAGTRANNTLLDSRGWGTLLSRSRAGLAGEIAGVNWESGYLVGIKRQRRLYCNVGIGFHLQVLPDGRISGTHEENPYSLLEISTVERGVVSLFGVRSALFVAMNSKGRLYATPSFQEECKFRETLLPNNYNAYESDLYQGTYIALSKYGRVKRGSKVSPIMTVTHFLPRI
Experimental: as §1

FGF-17 = molecular target: T3, FGF-17 (Homo sapiens, UniProt O60258); assay: ELISA binding to coated FGF-17; conditions: 50 nM cytokine coated
T3 sequence (O60258 23-216): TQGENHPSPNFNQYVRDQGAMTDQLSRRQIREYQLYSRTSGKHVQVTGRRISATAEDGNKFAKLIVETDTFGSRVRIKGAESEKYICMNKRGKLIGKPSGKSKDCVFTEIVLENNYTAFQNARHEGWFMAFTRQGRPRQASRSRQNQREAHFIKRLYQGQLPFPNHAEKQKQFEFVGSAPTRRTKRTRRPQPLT
Experimental: as §1

VEGF-C = molecular target: T4, VEGF-C (Homo sapiens, UniProt P49767); assay: ELISA binding to coated VEGF-C; conditions: 50 nM cytokine coated
T4 sequence (P49767 112-419): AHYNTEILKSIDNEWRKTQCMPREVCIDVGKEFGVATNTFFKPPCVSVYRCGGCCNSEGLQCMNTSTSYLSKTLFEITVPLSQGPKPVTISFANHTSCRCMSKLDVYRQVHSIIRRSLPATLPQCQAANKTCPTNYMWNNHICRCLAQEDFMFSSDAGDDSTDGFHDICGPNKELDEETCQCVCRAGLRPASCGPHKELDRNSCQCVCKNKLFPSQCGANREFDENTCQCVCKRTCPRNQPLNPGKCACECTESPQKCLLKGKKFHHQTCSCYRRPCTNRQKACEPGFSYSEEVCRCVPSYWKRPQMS
Experimental: as §1

HGF = HGF (Homo sapiens, UniProt P14210); assay: ELISA binding to coated HGF; conditions: 50 nM cytokine coated
Chain of HGF (P14210 32-728, species assumed): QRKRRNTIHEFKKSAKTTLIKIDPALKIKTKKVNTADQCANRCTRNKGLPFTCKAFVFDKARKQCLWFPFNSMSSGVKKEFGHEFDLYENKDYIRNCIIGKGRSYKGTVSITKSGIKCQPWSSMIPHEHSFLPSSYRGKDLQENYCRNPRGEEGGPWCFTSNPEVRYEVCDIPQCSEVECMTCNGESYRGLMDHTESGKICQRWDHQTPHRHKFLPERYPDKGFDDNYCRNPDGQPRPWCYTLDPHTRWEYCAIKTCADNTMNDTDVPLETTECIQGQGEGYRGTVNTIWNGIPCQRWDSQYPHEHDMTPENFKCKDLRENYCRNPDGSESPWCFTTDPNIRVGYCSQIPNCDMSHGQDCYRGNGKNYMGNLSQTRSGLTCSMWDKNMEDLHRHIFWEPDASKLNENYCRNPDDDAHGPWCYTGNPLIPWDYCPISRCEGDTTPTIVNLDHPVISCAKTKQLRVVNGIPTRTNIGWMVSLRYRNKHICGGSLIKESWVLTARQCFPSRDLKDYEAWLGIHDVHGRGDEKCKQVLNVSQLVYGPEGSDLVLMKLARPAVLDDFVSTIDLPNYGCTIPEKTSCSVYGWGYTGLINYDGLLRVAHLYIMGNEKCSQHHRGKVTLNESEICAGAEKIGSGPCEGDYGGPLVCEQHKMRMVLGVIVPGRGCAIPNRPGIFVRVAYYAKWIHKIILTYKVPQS
Experimental: as §1

SMC = assay: Smooth muscle cell proliferation on modified TG-PEG gels with PDGF-BB; format: cell-based
Experimental: Method: Three different gels were fabricated, unmodified PEG, and PEG gels modified with TNC III1-5 or FN III9*-10,TNC III1-5 (5 μM). Unbound fragment was washed from the gels. Sequentially, gels were incubated for 1 hour at 37° C. with 100 μL DMEM without PDGF-BB or with PDGF-BB (1 ng per gel). For one set of gels, the media containing PDGF-BB was removed and gels were washed for 1 hour at RT. Cells were added to each gel and a proliferation assay with Alamar Blue was performed at 72 hours.

PlGF-3 = molecular target: T5, PlGF-3 (Homo sapiens, UniProt P49763); assay: ELISA binding to coated PlGF-3; conditions: 50 nM cytokine coated
T5 sequence (P49763 19-221): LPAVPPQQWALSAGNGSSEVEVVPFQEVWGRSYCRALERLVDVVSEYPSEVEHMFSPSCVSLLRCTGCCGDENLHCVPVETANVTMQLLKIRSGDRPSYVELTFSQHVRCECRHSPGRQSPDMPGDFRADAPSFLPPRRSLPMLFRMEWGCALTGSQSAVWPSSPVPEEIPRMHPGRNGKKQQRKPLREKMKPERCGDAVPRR
Experimental: as §1
ELISA plates were coated with cytokines or BSA and further incubated with Fg β15-66 to analyze binding of […] to a wide variety of cytokines. […] Results are depicted in FIG. 4. Method: The methods were analogous to those used in Example 3.

HUVEC cells = assay: HUVEC proliferation with cytokines with or without fibrinogen or Fg β15-66; format: cell-based, human; conditions: 72 hours; ≧100-fold molar excess; VEGF-A165, PlGF-2, FGF-2
Experimental: To verify that cytokines bound to Fg β15-66 are still bioactive, the proliferation of HUVEC cells was tested for different cytokines with and without the presence of Fg β15-66. Method: HUVEC cells were stimulated with various cytokines: VEGF-A165, PlGF-2, and FGF-2 with or without fibrinogen or Fg β15-66 in excess (≧100-fold molar excess).

skin wounds = assay: Full-thickness back-skin wound healing in diabetic mice; format: in vivo; conditions: TG-PEG gels functionalized with TG-Fg β15-66 delivering FGF-2 and PlGF-2; 10 days
Experimental: Method: Full-thickness back-skin wounds were treated with combined FGF-2 and PlGF-2. Seven groups were tested: treatment (no ECM); fibrin only; fibrin containing cytokines; PEG only, PEG containing cytokines; PEG functionalized with TG-Fg β15-66, and PEG functionalized with TG-Fg β15-66 containing cytokines. After 10 days, wound closure and granulation tissue area were evaluated by histology. FIG. 20 details the results.

B1: TNC III1-5: recombinant tenascin C fibronectin type III repeats 1-5 (E622 to A1074) with transglutaminase substrate NQEQVSPL and 6×His tag, SEQ ID NO:1 (protein)
chain: METDTLLLWVLLLWVPGSTGDAAQPAIEGRNQEQVSPLGGSEVSPPKDLVVTEVTEETVNLAWDNEMRVTEYLVVYTPTHEGGLEMQFRVPGDQTSTIIQELEPGVEYFIRVFAILENKKSIPVSARVATYLPAPEGLKFKSIKETSVEVEWDPLDIAFETWEIIFRNMNKEDEGEITKSLRRPETSYRQTGLAPGQEYEISLHIVKNNTRGPGLKRVTTTRLDAPSQIEVKDVTDTTALITWFKPLAEIDGIELTYGIKDVPGDRTTIDLTEDENQYSIGNLKPDTEYEVSLISRRGDMSSNPAKETFTTGLDAPRNLRRVSQTDNSITLEWRNGKAAIDSYRIKYAPISGGDHAEVDVPKSQQATTKTTLTGLRPGTEYGIGVSAVKEDKESNPATINAATELDTPKDLQVSETAETSLTLLWKTPLAKFDRYRLNYSLPTGQWVGVQLPRNTTSYVLRGLEPGQEYNVLLTAEKGRHKSKPARVKASTEQAGGGSHHHHHH
modifications: Tenascin III signal sequence with polyhistidine tag
binding to FGF-4 (ELISA, signal above BSA background) (FGF-4): positive binding | binding to FGF-6 (ELISA, signal above BSA background) (FGF-6): positive binding | binding to FGF-17 (ELISA, signal above BSA background) (FGF-17): positive binding | binding to VEGF-C (ELISA, signal above BSA background) (VEGF-C): positive binding | binding to HGF (ELISA, signal above BSA background) (HGF): positive binding | SMC proliferation on TG-PEG gels (2%) (SMC; in the presence of PDGF-BB, 5 μM fragment, 72 hours): enhanced SMC proliferation | SMC proliferation on modified gels vs unmodified gels (SMC; unbound PDGF-BB removed, p<0.05): significantly increased proliferation

B2: Fg β15-66: heparin-binding domain of human fibrinogen β chain aa15-66 (SEQ ID NO:8); construct with TG substrate and His tag, SEQ ID NO:2 (protein)
chain: GSNQEQVSPLGHRPLDKKREEAPSLRPAPPPISGGGYRARPAKAAATQKKVERKAPDAGGCGHHHHHH
modifications: GS linker, transglutaminase substrate, the Fg beta15-66, with a Histidine tag
binding to PlGF-3 (ELISA, signal above BSA background) (PlGF-3): positive binding | synergistic effect on HUVEC proliferation, cytokines plus protein vs cytokines alone (HUVEC cells): no synergistic effect | skin-wound healing (skin wounds): enhanced skin-wound healing
